Five molecules from publication PMC12256112 can be followed below.

The target of experiment [1] is Rpn11, wild type, deubiquitinase subunit of the lid in the reconstituted 26S proteasome (S. cerevisiae) (UniProt P43588).
Experiment [2] addresses Rpn11 L132R, deubiquitinase subunit of the lid in the reconstituted receptor-deficient 26S proteasome (S. cerevisiae) (UniProt P43588).
The target of experiment [3] is Rpn11, wild type, deubiquitinase subunit of the lid in the reconstituted 26S proteasome (S. cerevisiae) (UniProt P43588). This is another data set of the same source.
For experiment [4], the target named is Rpn11 A89F, deubiquitinase subunit of the lid in the reconstituted receptor-deficient 26S proteasome (S. cerevisiae) (UniProt P43588).
Experiment [5] deals with Rpn11, wild type, deubiquitinase subunit of the lid in the reconstituted 26S proteasome (S. cerevisiae) (UniProt P43588). The source holds these as a separate data set.
The target in experiment [6] is isolated Rpn11/Rpn8 heterodimer with Rpn11 A89F (S. cerevisiae) (UniProt P43588).
Experiment [7] deals with isolated Rpn11/Rpn8 heterodimer with Rpn11 A89I (S. cerevisiae) (UniProt P43588).
Experiment [8] addresses Rpt5, ATPase subunit of the base, in the reconstituted 26S proteasome (S. cerevisiae) (UniProt P33297).

Molecule “poly-ubiquitinated GS substrate (titin I27^V15P with glycine-serine-rich initiation region, long ubiquitin chains attached) (from UniProt P0CG63 1-76)” yielded a degradation rate of the GS substrate with long ubiquitin chains by SspB-fused ARR-Pru-ΔUIM proteasomes; 0.25 min^-1 for the non-ubiquitinated GS substrate (bulk degradation assay) in experiment [1] of 1 min⁻¹.

“mono-ubiquitinated GS substrate (titin I27^V15P with glycine-serine-rich initiation region, one ubiquitin K63R attached) (from UniProt P0CG63 1-76)” had a degradation rate of the mono-ubiquitinated GS substrate by the SspB-fused ARR-Pru-ΔUIM proteasome with Rpn11^L132R; no ubiquitin-mediated stimulation (bulk degradation assay) in experiment [2] of 0.25 min⁻¹. This molecule also showed a degradation rate of the mono-ubiquitinated GS substrate by the SspB-fused ARR-Pru-ΔUIM proteasome with wild-type Rpn11, against the non-ubiquitinated GS substrate (bulk degradation assay) in experiment [3] of 0.38 min⁻¹.

“unanchored K48-linked tetraubiquitin chain (from UniProt P0CG63 1-76)” came in with a SspB-delivered substrate degradation by ARR-Pru-ΔUIM-A89F proteasomes without and with K48-Ub4 (bulk degradation assay) in experiment [4] of 1.2 fold. For the same molecule, the average tail-insertion time constant of the wild-type proteasome without and with unanchored K48-Ub4 (single-molecule FRET substrate-processing assay) in experiment [5] turned out to be 1.39 s.

On to Ubiquitin-TAMRA, for which the deubiquitinase activity of the isolated Rpn11/Rpn8 heterodimer (0.5 μM) on 100 μM Ubiquitin-TAMRA, against wild-type Rpn11 (fluorescence polarisation, 30°C) was found to be 1.3 fold in experiment [6] and 10 fold in experiment [7].

B1: Rpn10 with the R23E, D31K and E68K mutations in its VWA domain, as subunit of the reconstituted 26S proteasome (receptor)
chain: MVLEATVLVIDNSEYSRNGDFPETRFEAQIKSVEFIFQAKRNSNPENTVGLISGAGANPRVLSTFTAKFGKILAGLHDTQIEGKLHMATALQIAQLTLKHRQNKVQHQRIVAFVCSPISDSRDELIRLAKTLKKNNVAVDIINFGEIEQNTELLDEFIAAVNNPQEETSHLLTVTPGPRLLYENIASSPIILEEGSSGMGAFGGSGGDSDANGTFMDFGVDPSMDPELAMALRLSMEEEQQRQERLRQQQQQQDQPEQSEQPEQHQDK
In experiment [8], B1 gave a SspB-delivered substrate degradation by proteasomes with Rpn10^EKK against wild-type proteasomes (bulk degradation assay) of 1.6 fold and a s1-to-non-s1 transition rate of proteasomes with Rpn10^EKK against wild-type proteasomes (single-molecule FRET conformational dynamics assay) of 40%.
